In publication PMC5604497:

Target: leucine zipper domain of the transcription factor GCN4 from Saccharomyces cerevisiae (fusions with T18 and T25) (Saccharomyces cerevisiae)
Experiment: two-hybrid; bacterial two-hybrid (BACTH), T18 and T25 fusions co-overexpressed in adenylate-cyclase-deficient E. coli BTH-101, LB pH 7, aerobic, OD600 ~0.6; ß-galactosidase activity (ONPG) in Miller units, three biological replicates; background with empty vectors about 400 MU

Substance: leucine zipper domain of the transcription factor GCN4 from Saccharomyces cerevisiae (fusions with T18 and T25) (domain or fragment)
- ß-galactosidase activity: 1200 MU
